From US20200109188A1 (AstraZeneca / MedImmune, published 2020)

What was measured:
[1] = target: HA of ca A/teal/Hong Kong/W312/97 (H6N1) virus (influenza A virus); test: cell-based or functional assay
[2] = target: HA of ca A/Brit. Columbia/CN-6/04 (H7N3-LP) virus (influenza A virus); test: cell-based or functional assay
[3] = target: HA of ca A/Japan/57 (H2N2) virus (influenza A virus); test: cell-based or functional assay
[4] = target: HA of ca A/chicken/Hong Kong/G9/97 (H9N2) virus (influenza A virus); test: cell-based or functional assay
[5] = target: HA of ca A/Hong Kong/213/03 (H5N1) virus (influenza A virus); test: cell-based or functional assay
[6] = target: HA of A/New Jersey/8/76 (H1N1) virus (influenza A virus); test: cell-based or functional assay
[7] = target: HA of ca A/Netherlands/219/03 (H7N7) virus (influenza A virus); test: cell-based or functional assay
[8] = target: HA of ca A/mallard/Alberta/89/85 (H6N2) virus (influenza A virus); test: cell-based or functional assay
[9] = target: HA of ca A/swine/Missouri/06 (H2N3) virus (influenza A virus); test: cell-based or functional assay
[10] = target: HA of ca A/Vietnam/1203/04 (H5N1) virus (influenza A virus); test: cell-based or functional assay
[11] = target: HA of ca A/Anhui/1/13 (H7N9) virus (influenza A virus); test: cell-based or functional assay
[12] = target: HA subtype H12 (A/duck/Alberta/60/76 (H12N5)) on HEK cells (influenza A virus, UniProt P03446 17-564); test: flow cytometry, HA-transfected HEK cells, 5 ug/ml antibody
[13] = target: HA subtype H4 (A/duck/Czechoslovakia/56 (H4N6)) on HEK cells (influenza A virus, UniProt P19696 17-564); test: as above
[14] = target: HA subtype H10 (A/chicken/Germany/N49 (H10N7)) on HEK cells (influenza A virus, UniProt P12581 17-561); test: as above
[15] = target: HA subtype H13 (A/gull/Maryland/704/77 (H13N6)) on HEK cells (influenza A virus, UniProt P13103 19-566); test: as above
[16] = target: HA subtype H14 (A/mallard/Astrakhan/263/82 (H14N5)) on HEK cells (influenza A virus, UniProt P26136 18-568); test: as above
Chain of HA subtype H14 (A/mallard/Astrakhan/263/82 (H14N5)) on HEK cells (P26136 18-568): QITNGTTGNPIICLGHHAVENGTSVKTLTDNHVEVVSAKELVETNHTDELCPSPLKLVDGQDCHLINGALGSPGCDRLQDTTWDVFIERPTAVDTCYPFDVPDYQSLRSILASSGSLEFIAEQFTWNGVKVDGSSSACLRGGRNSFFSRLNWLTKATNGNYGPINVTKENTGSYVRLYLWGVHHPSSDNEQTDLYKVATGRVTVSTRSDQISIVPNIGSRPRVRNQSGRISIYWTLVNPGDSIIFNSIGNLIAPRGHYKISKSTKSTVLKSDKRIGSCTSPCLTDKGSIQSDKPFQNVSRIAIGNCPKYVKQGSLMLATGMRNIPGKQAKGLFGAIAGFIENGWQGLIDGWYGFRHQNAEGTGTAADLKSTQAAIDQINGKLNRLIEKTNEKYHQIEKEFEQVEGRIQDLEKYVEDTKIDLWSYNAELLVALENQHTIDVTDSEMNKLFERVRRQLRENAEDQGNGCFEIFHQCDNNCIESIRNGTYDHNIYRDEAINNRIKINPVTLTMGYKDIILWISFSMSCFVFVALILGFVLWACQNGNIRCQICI

Chain of HA subtype H10 (A/chicken/Germany/N49 (H10N7)) on HEK cells (P12581 17-561): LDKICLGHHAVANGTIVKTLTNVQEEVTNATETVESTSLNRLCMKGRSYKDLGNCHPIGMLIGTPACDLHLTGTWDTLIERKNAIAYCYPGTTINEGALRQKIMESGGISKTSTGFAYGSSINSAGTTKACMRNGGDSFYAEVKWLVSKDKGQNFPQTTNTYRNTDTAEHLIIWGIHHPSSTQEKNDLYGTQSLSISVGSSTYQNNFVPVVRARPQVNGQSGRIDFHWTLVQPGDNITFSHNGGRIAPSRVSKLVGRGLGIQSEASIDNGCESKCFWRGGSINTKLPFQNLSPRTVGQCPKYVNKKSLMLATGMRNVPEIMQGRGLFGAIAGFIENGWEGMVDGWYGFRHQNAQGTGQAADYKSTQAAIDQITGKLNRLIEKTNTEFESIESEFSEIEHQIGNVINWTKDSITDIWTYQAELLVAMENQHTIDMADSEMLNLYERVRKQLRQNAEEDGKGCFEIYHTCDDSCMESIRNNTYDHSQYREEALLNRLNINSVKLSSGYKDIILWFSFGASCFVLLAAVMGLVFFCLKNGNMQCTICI
Chain of HA subtype H12 (A/duck/Alberta/60/76 (H12N5)) on HEK cells (P03446 17-564): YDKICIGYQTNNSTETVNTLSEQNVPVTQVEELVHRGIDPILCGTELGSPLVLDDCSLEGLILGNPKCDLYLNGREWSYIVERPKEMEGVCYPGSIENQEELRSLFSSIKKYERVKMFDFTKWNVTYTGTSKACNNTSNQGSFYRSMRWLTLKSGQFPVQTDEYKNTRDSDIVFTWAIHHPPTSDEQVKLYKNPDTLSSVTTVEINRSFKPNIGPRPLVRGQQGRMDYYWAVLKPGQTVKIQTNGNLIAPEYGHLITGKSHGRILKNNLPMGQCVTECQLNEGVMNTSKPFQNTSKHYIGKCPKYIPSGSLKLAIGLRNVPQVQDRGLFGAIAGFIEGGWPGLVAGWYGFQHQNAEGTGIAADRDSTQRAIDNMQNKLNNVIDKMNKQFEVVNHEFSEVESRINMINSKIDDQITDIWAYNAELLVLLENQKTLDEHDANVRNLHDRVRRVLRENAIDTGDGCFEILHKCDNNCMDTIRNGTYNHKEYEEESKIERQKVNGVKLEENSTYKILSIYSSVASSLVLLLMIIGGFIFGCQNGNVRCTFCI
Chain of HA subtype H13 (A/gull/Maryland/704/77 (H13N6)) on HEK cells (P13103 19-566): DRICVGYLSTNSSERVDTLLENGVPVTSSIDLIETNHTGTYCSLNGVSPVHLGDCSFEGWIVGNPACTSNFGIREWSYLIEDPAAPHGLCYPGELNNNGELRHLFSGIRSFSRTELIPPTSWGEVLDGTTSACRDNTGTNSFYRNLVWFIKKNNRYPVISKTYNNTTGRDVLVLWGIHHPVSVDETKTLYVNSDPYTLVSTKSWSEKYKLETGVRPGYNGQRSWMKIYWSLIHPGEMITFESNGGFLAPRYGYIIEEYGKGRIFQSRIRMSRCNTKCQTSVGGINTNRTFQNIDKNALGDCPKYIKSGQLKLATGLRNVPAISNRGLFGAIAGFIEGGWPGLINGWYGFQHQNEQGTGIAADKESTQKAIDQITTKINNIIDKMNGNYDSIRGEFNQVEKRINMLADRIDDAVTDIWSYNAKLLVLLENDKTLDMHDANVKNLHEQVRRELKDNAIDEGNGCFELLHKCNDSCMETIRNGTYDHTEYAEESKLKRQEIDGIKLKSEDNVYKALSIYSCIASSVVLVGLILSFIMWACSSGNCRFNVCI
Chain of HA subtype H4 (A/duck/Czechoslovakia/56 (H4N6)) on HEK cells (P19696 17-564): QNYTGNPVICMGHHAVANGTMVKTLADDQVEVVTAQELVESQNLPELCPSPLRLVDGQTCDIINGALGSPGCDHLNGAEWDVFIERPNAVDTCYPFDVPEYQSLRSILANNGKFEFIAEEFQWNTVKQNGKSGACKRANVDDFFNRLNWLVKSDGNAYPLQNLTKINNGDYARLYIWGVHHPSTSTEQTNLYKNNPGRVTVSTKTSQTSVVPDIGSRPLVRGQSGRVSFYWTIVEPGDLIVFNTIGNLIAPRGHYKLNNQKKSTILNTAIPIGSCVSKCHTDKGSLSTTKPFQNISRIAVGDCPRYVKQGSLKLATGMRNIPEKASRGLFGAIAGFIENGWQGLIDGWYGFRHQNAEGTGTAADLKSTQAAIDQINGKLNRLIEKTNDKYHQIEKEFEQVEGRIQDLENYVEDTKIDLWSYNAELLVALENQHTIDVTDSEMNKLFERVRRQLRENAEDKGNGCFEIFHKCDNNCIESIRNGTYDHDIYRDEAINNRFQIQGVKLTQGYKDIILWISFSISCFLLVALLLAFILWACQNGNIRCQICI

Binder | Neutralization IC50, H6-HK97 [1] [µg/mL] | Neutralization IC50, H7-BC04 [2] [µg/mL] | Neutralization IC50, H2-JP57 [3] [µg/mL] | Neutralization IC50, H9-HK97 [4] [µg/mL] | Neutralization IC50, H5-HK03 [5] [µg/mL] | Neutralization IC50, H1-NJ76 [6] [µg/mL] | Neutralization IC50, H7-NLD03 [7] [µg/mL] | Neutralization IC50, H6-AB85 [8] [µg/mL] | Neutralization IC50, H2-MO06 [9] [µg/mL] | Neutralization IC50, H5-VM04 [10] [µg/mL] | Neutralization IC50, H7-ANU13 [11] [µg/mL] | binding result [12] | binding result [13] | binding result [14] | binding result [15] | binding result [16]
Antibody 11 (antibody, V domains shown) VH: QVQLQQSGPGLVKPSQTLSLTCAISGDSVSSYNAVWNWIRQSPSRGLEWLGRTYYRSGWYNDYAESVKSRITINPDTSKNQFSLQLNSVTPEDTAVYYCARSGHITVFGVNVDAFDMWGQGTMVTVSS VL: DIQMTQSPSSLSASVGDRVTITCRTSQSLSSYTHWYQQKPGKAPKLLIYAASSRLSGVPSRFSGSGSGTDFTLTISSLQPEDFATYYCQQSRTFGQGTKVEIK | 0.4 | 0.71 | 0.31 | 0.36 | 0.21 | 0.13 | 0.94 | 0.24 | 0.6 | 0.57 |  |  |  |  |  | 
Antibody 15 (antibody, V domains shown) VH: QVQLQQSGPGLVKPSQTLSLTCAISGDSVSSNNAVWNWIRQSPSRGLEWLGRTYYRSKWYNDYAESVKSRITINPDTSKNQFSLQLNSVTPEDTAVYYCARSGHITVFGVNVDAFDMWGQGTTVTVSS VL: DIQMTQSPSSLSASVGDRVTITCRTSQSLSSYTHWYQQKPGKAPKLLIYAASSRGSGVPSRFSGSGSGTDFTLTISSLQPEDFATYYCQQSRTFGQGTKVEIK | 0.33 | 1.25 | 0.33 | 0.35 | 0.05 | 0.25 | 1.3 | 0.19 | 0.83 | 0.28 |  |  |  |  |  | 
Antibody 13 (antibody, V domains shown) VH: QVQLQQSGPGLVKPSQTLSLTCAISGDSVSSYNAVWNWIRQSPSRGLEWLGRTYYRSGWYNDYAESVKSRITINPDTSKNQFSLQLNSVTPEDTAVYYCARSGHITVFGVNVDAFDMWGQGTMVTVSS VL: DIQMTQSPSSLSASVGDRVTITCRTSQSLSSYDHWYQQKPGKAPKLLIYAASSRLSGVPSRFSGSGSGTDFTLTISSLQPEDFATYYCQQSRTFGQGTKVEIK | 0.55 | 0.96 | 0.47 | 0.29 | 0.17 | 0.12 | 2.45 | 0.29 | 0.57 | 0.56 |  |  |  |  |  | 
Antibody 14 (antibody, V domains shown) VH: QVQLQQSGPGLVKPSQTLSLTCAISGDSVSSNNAVWNWIRQSPSRGLEWLGRTYYRSKWYNDYAESVKSRITINPDTSKNQFSLQLNSVTPEDTAVYYCARSGHITVFGVNVDAFDMWGQGTTVTVSS VL: DIQMTQSPSSLSASVGDRVTITCRTSQSLSSYTHWYQQKPGKAPKLLIYAASSRLSGVPSRFSGSGSGTDFTLTISSLQPEDFATYYCQQSRTFGQGTKVEIK | 0.26 | 0.86 | 0.67 | 0.44 | 0.21 | 0.11 | 1.16 | 0.26 | 0.65 | 0.33 | 2.12 |  |  |  |  | 
Antibody 12 (antibody, V domains shown) VH: QVQLQQSGPGLVKPSQTLSLTCAISGDSVSSYNAVWNWIRQSPSRGLEWLGRTYYRSGWYNDYAESVKSRITINPDTSKNQFSLQLNSVTPEDTAVYYCARSGHITVFGVNVDAFDMWGQGTMVTVSS VL: DIQMTQSPSSLSASVGDRVTITCRTSQSLSSYTHWYQQKPGKAPKLLIYAASSRGSGVPSRFSGSGSGTDFTLTISSLQPEDFATYYCQQSRTFGQGTKVEIK | 0.45 | 0.78 | 0.35 | 0.31 | 0.17 | 0.12 | 0.83 | 0.32 | 0.53 | 0.31 | 2.56 | binds | binds | binds | binds | binds
